Assay results from patent US20090291088A1, “THERAPEUTIC COMBINATIONS OF ANTI-IGF-1R ANTIBODIES AND OTHER COMPOUNDS” (Biogen Idec MA Inc., priority 2008, published 2009).

What was measured:
IGF-1R = molecular target: T1, IGF-1R (Homo sapiens, UniProt P08069); test: Ligand blocking assay (RIA): 125I-IGF-1 / 125I-IGF-2 binding to immobilized IGF-1R; details: murine monoclonal antibodies
T1 construct: human IGF-1R(1-903)-Fc (denoted hIGF-1R-Fc, generated by Biogen Idec)
Description: Ligand blocking assay (RIA). […] Insulin (Arg-Insulin, Cat #01-207) was purchased from Upstate Cell Signaling Solutions (Lake Placid, N.Y. (now part of Millipore, Concord, Mass. (USA)). ^125I-rhIGF-1 (Cat # IM172), ^125I-rhIGF-2 (Cat# IM238) and ^125I-rhInsulin (Cat# IM166) were purchased from Amersham Biosciences (Piscataway, N.J.). AffiPure goat anti-human IgG, Fcγ fragment specific antibodies (Cat #109-005-098, Jackson ImmunoResearch, West Grove, Pa.) was used for IGF-1R-Fc capture. As detection antibody, goat anti-mouse IgG HRP (Cat #1030-05, Southern Biotech Birmingham, Ala.) was used.
Human insulin receptor α-subunit specific antibodies, Clone 83-14, (Cat #AHR0221, Biosource International, Inc., Camarillo, Calif.) and the 47-9 (Cat #E55502M, Biodesign International, Saco, M E) were used as positive controls blocking of insulin-insulin receptor binding experiments. Recombinant IGF-1R-Fc fusion protein was produced at Biogen Idec (Cambridge, Mass.).
As isotype matched mouse negative control antibodies, 2B8 (murine α-CD20.1gG,) and 2B8 mkm.G2a (murine α-CD20 MAb, IgG2a, Biogen Idec, Lot #NB3304-87, San Diego, Calif.) were used. The negative control for Fabs was R001-1B provided by Christilyn Graff (Biogen Idec, Cambridge, Mass.). PBS used in buffers was from BioWhittaker (Cat. # 17-513F, Walkersville, Md.).
Recombinant human IGF-1R (Histidine tagged version) or IGF-1R-Fc was coated onto IMMULON2 HB (high binding) Removawell strips (Dynex Technologies, Inc., cat. #6302) diluted with carbonate coating buffer pH 9.5 to a concentration of 250 ng/well. After overnight incubation at 4° C., the wells were washed three times with washing buffer (0.05% Tween 20/PBS) then blocked with blocking buffer (3% BSA/PBS) for one hour at room temperature. The blocking buffer was removed and the wells washed three more times. Antibody, Fab, or ligand preparations were diluted to desired concentration with dilution buffer (1% BSA/0.05% Tween 20/PBS) and plated at 50 μl per well in duplicate. After 45 minutes at room temperature, 100,000 cpm of either [125I] rhIGF-1 or [125I] rhIGF-2 in 50 μl dilution buffer was added per well. This was incubated at room temperature for one more hour. The wells were washed again three more times and left liquid free after the last wash. The air-dried wells were counted with the Isodata Gamma Counter.
Alternatively, Fabs were evaluated by a modified capture assay, where the IGF-1R-Fc was captured using anti-human IgG immobilized to a plate. Immobilization was carried out by overnight incubation of goat anti-human IgG, Fcγ fragment specific antibody (200 ng/well) in carbonate coating buffer. The wells were washed, blocked and 250 ng of IGF-1R-Fc was added per well.
The ligand blocking ability of the anti-IGF-1R antibody was determined by a solid phase RIA capture method as described in Example 3. […] After 1 hour of incubation at room temperature, the wells were washed and counted for bound radioactivity by a Gamma Counter. An isotype matched negative antibody control, IDEC-151 (human G4), was used. Percent (%) inhibition was calculated as =[1−(Ave.CPM with Ab)/(Ave.CPM with buffer)]×100%.

IGF-1R phosphorylation = molecular target: T2, IGF-1R phosphorylation (Homo sapiens, UniProt P08069); test: Inhibition of IGF-1 and IGF-2 mediated IGF-1R phosphorylation in MCF-7 cells (ELISA); format: cell-based; details: murine monoclonal antibodies
T2 construct: wild type IGF-1R expressed on MCF-7 tumor cells; endogenous in cells; host or cells: MCF-7
Protocol: Cell lines: IGF1R expressing human breast carcinoma cell line MCF-7 (NCI) were maintained at 37° C. and 5% CO2 in MEM eagle (ATCC) containing 10% FBS, 1× non-essential amino acids, 2 mM L-glutamine, 1 mM sodium pyruvate and 1000 U/ml penicillin and streptomycin. Cells were sub-cultured twice weekly for maintenance and assay, and used with a maximum of 12 passages.
MCF-7 cells were plated in 2 ml growth media at 2×10^5 to 4.0×10^5 cells/well in Ploy-D-Lysine coated 12 well plates (BD Biosciences, #35-6470) and cultured at 37° C., 5% CO2. At 48 hours, media removed and cells serum starved overnight at 37° C., 5% CO2 Serum free media was removed and control or test antibodies at indicated concentration were added in 350 ul of fresh serum free media and incubated for 1 hour at room temperature, or alternately at 37° C. Fabs were tested at 200 nM, 20 nM and 2 nM concentration and the mAbs were tested at 67, 6.7 and 0.67 nM. The commercial anti-IGF-1R control antibody used was αIR3 (EMD biosciences, Oncogene Research products, #D27249). […] Ligand was incubated at […] for 37° C. antibody experiments. Cells were lysed in 1× cell lysis buffer (Cell Signal Technologies, #9803) with 1 mM PMSF for 1 hour at room temperature.
Cell lysates were added to ELISA plates pre-coated with IGF-1Rp antibody (Clone 1-2, Biosource International, #AHR0361) and incubated for 2 hours. Following which plates were washed and the plate bound phosphorylated receptor was detected with the biotin labeled anti-phosphotyrosine antibody 4G10 (Catalog #16-103, Upstate Cell Signaling Solutions (Lake Placid, N.Y. (now part of Millipore, Concord, Mass. (USA)) and streptavidin-HRP (BD Pharmingen, #554066). Assay is developed by addition of TMB substrate (Kierkegaard & Perry, #50-76-00) and color stopped by addition of […] (LabChem, Cat#LC25830-1). Optical density is measured at 450 nm using a Molecular Devices plate reader and percent inhibition over the ligand control is calculated for each antibody-ligand sample.
The effect of human anti-IGF-1R antibodies on IGF-1R signaling was evaluated using MCF-7 cells (human breast adenocarcinoma cells).

MCF-7 = test: Ki67 inhibition in MCF-7 cells; format: cell-based, human; details: breast cancer cell
NCI-H23 = test: IGF driven tumor cell growth, CELL TITER-GLO, H-23; format: cell-based, human; details: for Proliferation of Tumor Cells H-23: lung cancer cells; for inhibition of IGF-1 and IGF-2 driven cell proliferation in H-23: NCI-H23 lung tumor cell line
Protocol: (§1) NCI-H23, Calu-6, Colo-205, Panc-1, BxPC-3 (ATCC) tumor lines were purchased from ATCC. Cell lines were grown in complete growth medium containing RPMI-1640 (ATCC), 10% fetal bovine serum (Irvine Scientific Inc.) and 50 μg/ml of Gentamycin (Gibco, Invitrogen). Trypsin-EDTA solution (Sigma) was used for removal of adherent cells from culture vessels. Phosphate buffered saline, pH 7.2, was from MediaTech Inc The 96-well clear bottom plates for luminescent assay was purchased from Wallac Inc.
(§2) Cells grown to 80% monolayers were, trypsinized, washed, resuspended and plated into 96-well plates in 200 μl of 2% growth medium at 8×10^3 cells/well for NCI-H23 and Colo-205 cells; and 5×10^3 cells/well for Calu-6, Panc-1 and BxPC-3 cells. After 24 hours, the culture medium was replaced with 100 μl of serum free medium (SFM), and 50 μl of serially diluted antibodies at 4× concentration was added. […] All treatments were done in triplicates. Cell growth was measured using the CELL TITER-GLO™ Luminescent Cell Viability Assay (Promega, Madison, Wis.). The 1:1 mixture of reagent and SFM was added at 200 μl/well. Luminescence was detected on Wallac (Boston, Mass.) plate reader.
(§3) The ability of the selected murine antibodies to inhibit IGF/IGF-1R dependent in vitro growth of several human tumor lines (Lung, H-23, Calu-6; Pancreas, BxPc-3, Panc-1, MiaPaCa and Colon Colo205) was measured by a proliferation assay described in Example 13.
A commercially available anti-IGF-1R antibody (IR3) was used as a positive control. The mouse IgG (anti-IDectin, IgG1) and human gamma 4 version of IDEC-152 antibody of irrelevant specificity were used as isotype matched controls for the experiments. […]

Calu-6 = test: IGF driven tumor cell growth, CELL TITER-GLO, Calu-6; format: cell-based, human; details: lung cancer cells
Protocol: as §1, §2, §3

Panc-1 = test: IGF driven tumor cell growth, CELL TITER-GLO, Panc-1; format: cell-based, human; details: pancreatic cancer cell
Protocol: as §1, §2, §3

Colo-205 = test: IGF driven tumor cell growth, CELL TITER-GLO, Colo-205; format: cell-based, human; details: colon cancer cell
Protocol: as §1, §2, §3

Row | Molecule | IGF Blocking IGF-1 (IGF-1R) | Inhibition of IGF-1R.pTyr IGF-1 (IGF-1R phosphorylation) | Inhibition of IGF-1R.pTyr IGF-2 (IGF-1R phosphorylation) | Proliferation of Tumor Cells MCF-7* (Ki67 Inhibit.) (MCF-7) | Proliferation of Tumor Cells H-23 (NCI-H23) | Proliferation of Tumor Cells Calu-6 (Calu-6) | Proliferation of Tumor Cells Panc-1 (Panc-1) | Proliferation of Tumor Cells Colo-205 (Colo-205) | inhibition of IGF-1 and IGF-2 driven cell proliferation in H-23 (NCI-H23)
1 | P1E2.3B12: murine anti-human IGF-1R monoclonal antibody from hybridoma; VH SEQ ID NO:63, VL SEQ ID NO:118 (antibody, V domains shown, Antibody variable heavy chain sequence; Antibody variable light chain sequence) VH: QVQLQQPGAELVKPGASVKLSCKASGYTFTSYWMHWVKQRPGQGLEWIGEINPTYGRSNYNEKFKSKATLTVDKSSSTAYMQLSSLTSEDSAVYYCARLVRLRYFDVWGAGTTVTVSS VL: DIVMTQAAFSNPVTLGTSASISCRSSKSLLHSNGITYLYWYLQKPGQSPQLLIYQMSNLASGVPDRFSSSGSGTDFTLRISRVEAEDVGVYYCAQNLELPYTFGGGTKLEIK | +++ (>40%@0.1 μg/ml) | +++ (>30%@0.1 μg/ml) | +++ (>30%@0.1 μg/ml) | ++ (>50%@1 μg/ml) | ++++ (>30%@0.01 μg/ml) | ++ (>30%@1 μg/ml) | ++ (>30%@1 μg/ml) | ++ (>30%@1 μg/ml) | 
2 | P1A2.2B11: murine anti-human IGF-1R monoclonal antibody from hybridoma; VH SEQ ID NO:48, VL SEQ ID NO:108 (antibody, V domains shown, Antibody variable heavy chain sequence; Antibody variable light chain sequence) VH: QIQLVQSGPELKKPGETVKISCKASGYTFTNHGMNWVKQAPGKGLKWMGWNTSTGEPTYADDFKGRFAFSLETSASTAFLQINNLKNEDTASYFCASPLYYMYGRYIDVWGAGTAVTVSS VL: DIQMTQTTSSLSASLGDRVTISCRASQDISNYLNWYQQKPDGTIKLLIYYTSRLHSGVPSRFSGSGSGTDYSLTISNLEQEDFATYFCQQGKTLPWTFGGGTKLEIK | +++ (>40%@0.1 μg/ml) | +++ (>30%@0.1 μg/ml) | +++ (>30%@0.1 μg/ml) | ++ (>50%@1 μg/ml) | +++ (>30%@0.1 μg/ml) | ++ (>30%@1 μg/ml) | +++ (>30%@0.1 μg/ml) | +++ (>30%@0.1 μg/ml) | showed inhibition

More lines, main results first:

Row | IGF Blocking IGF-1 (IGF-1R) | Inhibition of IGF-1R.pTyr IGF-1 (IGF-1R phosphorylation) | Inhibition of IGF-1R.pTyr IGF-2 (IGF-1R phosphorylation) | Molecule | Proliferation of Tumor Cells MCF-7* (Ki67 Inhibit.) (MCF-7) | Proliferation of Tumor Cells H-23 (NCI-H23) | Proliferation of Tumor Cells Calu-6 (Calu-6) | Proliferation of Tumor Cells Panc-1 (Panc-1) | Proliferation of Tumor Cells Colo-205 (Colo-205) | inhibition of IGF-1 and IGF-2 driven cell proliferation in H-23 (NCI-H23)
3 | +++ (>40%@0.1 μg/ml) | +++ (>30%@0.1 μg/ml) | ++ (>30%@1 μg/ml) | P2A7.3E11: murine anti-human IGF-1R monoclonal antibody from hybridoma; VH SEQ ID NO:38, VL SEQ ID NO:98 (antibody, V domains shown, Antibody variable heavy chain sequence; Antibody variable light chain sequence) VH: QVQLQQSGPELVKPGASVKMSCKASGNTFTDYVINWVKQRTGQGLEWIGEIYPGNENTYYNEKFKGKATLTADKSSNTAYMQLSSLTSEDSAVYFCARGIYYYGSRTRTMDYWGQGTSVTVSS VL: EVVLTQSPTAMAASPGEKITITCSASSTLSSNYLHWYQQKPGFSPKLLIYRTSNLASGVPGRFSGSGSGTSYSLTIGTMEAEDVATYYCQQGSSIPLTFGAGTKLELK | ++ (>50%@1 μg/ml) | ++++ (>30%@0.01 μg/ml) | +++ (>30%@0.1 μg/ml) | ++++ (>30%@0.01 μg/ml) | +++ (>30%@0.1 μg/ml) | showed inhibition
4 | +++ (>40%@0.1 μg/ml) | +++ (>30%@0.1 μg/ml) | +++ (>30%@0.1 μg/ml) | P1G10.2B8: murine anti-human IGF-1R monoclonal antibody from hybridoma; VH SEQ ID NO:58, VL SEQ ID NO:113 (antibody, V domains shown, Antibody variable heavy chain sequence; Antibody variable light chain sequence) VH: QIQLVQSGPDLKKPGETVKISCKASGYTFTNHGMNWVKQAPGKDLKWMGWINTNTGEPTYADDFKGRFAFSLETSASTAYLQINNLKNEDTATYFCASPLYYRNGRYFDVWGAGTTVTVSS VL: DIQMTQTTSSLSASLGDRVTISCRASQDISNYLNWYQQKPDGSVKLLIYYTSRLHSGVPSRFSGSGSGTDYSLTISNLEQEDIATYFCQQGKTLPWTFGGGTKLEIK | +++ (>50%@0.1 μg/ml) | +++ (>30%@0.1 μg/ml) | ++ (>30%@1 μg/ml) | + (>30%@10 μg/ml) | ++ (>30%@1 μg/ml) | 
